Experiment [1] addresses XRCC1pSpT-9 none (pSer518; pThr519) (UniProt P18887). Nature of the experiment: 1D 31P NMR pH titration of the free phosphopeptide (600 MHz). As to conditions: pH 4.0-8.5, 35°C, no added NaCl (50 mM sodium acetate, 50 mM sodium cacodylate).
The target in experiment [2] is XRCC4pSpT-12 none (pSer232; pThr233) (UniProt Q13426). The description is as above. To be noted: pH 4.0-8.5, 35°C, no added NaCl (50 mM sodium acetate, 50 mM sodium cacodylate).
The target of a further experiment is XRCC1 (Homo sapiens) (UniProt P18887). As to the kind of experiment: fluorescence. To be noted: cited from earlier work.
The target of experiment [3] is XRCC1 tetraphosphorylated peptide (Homo sapiens) (UniProt P18887). As to conditions: cited from earlier work.
In experiment [4] the target is XRCC1pSpT-18 (unlabelled, NMR samples) none (pSer518; pThr519) (UniProt P18887). Nature of the experiment: 1H,15N-HSQC titration with 1H lineshape simulation (500 MHz). To be noted: pH 7.4, 35°C, 150 mM NaCl, 25 mM HEPES, 25 mM MES.
XRCC1pSpT-18 (unlabelled, NMR samples) none (pSer518; pThr519), sequence (P18887 whole entry): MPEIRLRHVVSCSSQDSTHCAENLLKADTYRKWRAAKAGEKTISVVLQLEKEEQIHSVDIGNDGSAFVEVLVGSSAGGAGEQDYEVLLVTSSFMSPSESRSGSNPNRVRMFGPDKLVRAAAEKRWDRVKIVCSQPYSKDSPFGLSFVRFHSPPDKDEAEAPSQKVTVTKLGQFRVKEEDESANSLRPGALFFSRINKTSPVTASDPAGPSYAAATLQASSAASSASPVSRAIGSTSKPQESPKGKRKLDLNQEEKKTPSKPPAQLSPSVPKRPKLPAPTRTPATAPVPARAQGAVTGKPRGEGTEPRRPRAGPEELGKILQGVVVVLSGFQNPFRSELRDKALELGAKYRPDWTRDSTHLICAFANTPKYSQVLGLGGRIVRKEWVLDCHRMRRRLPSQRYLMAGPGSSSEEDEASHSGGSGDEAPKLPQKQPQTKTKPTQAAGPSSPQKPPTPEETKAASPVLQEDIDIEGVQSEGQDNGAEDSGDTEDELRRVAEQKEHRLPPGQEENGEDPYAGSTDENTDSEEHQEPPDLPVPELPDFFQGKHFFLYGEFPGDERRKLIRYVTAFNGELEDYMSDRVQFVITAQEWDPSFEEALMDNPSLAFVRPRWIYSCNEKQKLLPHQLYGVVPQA

XRCC4pSpT-12 none (pSer232; pThr233), sequence (Q13426 whole entry): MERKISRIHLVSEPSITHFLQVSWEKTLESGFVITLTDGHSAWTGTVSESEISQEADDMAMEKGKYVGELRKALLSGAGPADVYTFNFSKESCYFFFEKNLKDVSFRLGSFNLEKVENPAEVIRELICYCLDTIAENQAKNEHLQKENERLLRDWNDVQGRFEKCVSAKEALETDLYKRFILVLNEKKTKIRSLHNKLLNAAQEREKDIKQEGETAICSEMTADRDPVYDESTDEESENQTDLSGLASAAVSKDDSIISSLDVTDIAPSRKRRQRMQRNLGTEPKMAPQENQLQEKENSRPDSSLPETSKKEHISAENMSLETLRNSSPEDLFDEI
XRCC1pSpT-9 none (pSer518; pThr519), sequence (P18887 whole entry): as the sequence (P18887 whole entry) above
XRCC1 tetraphosphorylated peptide (Homo sapiens), sequence (P18887 whole entry): as above
XRCC1 (Homo sapiens), sequence (P18887 whole entry): as above

For the substance APLF FHA domain, in experiment [1], the pK, pSer518 phosphate of XRCC1pSpT-9 was found to be 6.56 pH units and the pK, pThr519 phosphate of XRCC1pSpT-9 turned out to be 6.86 pH units. Moreover, in experiment [2], the pK, pSer232 phosphate of XRCC4pSpT-12 came out at 6.9 pH units and the pK, pThr233 phosphate of XRCC4pSpT-12 was found to be 7.22 pH units.
For PNKP FHA (from UniProt Q96T60), the Kd with XRCC1 (Homo sapiens) was 3.5 nM; in experiment [3] it was 140 nM.
Regarding U-[15N] APLF FHA domain, the “τB (lifetime of the protein-peptide complex)” value in experiment [4] is recorded as 0.9 ms.

Source of the values: PMC5716189, “Characterization of the APLF FHA–XRCC1 phosphopeptide interaction and its structural and functional implications” (Nucleic Acids Research, 2017).
